{
  "source": "the supplement of paper PMC10567573",
  "parents": {"B1": {"name": "GMCL1 (parent)", "chain": "FCYCAGSHKRKRSSGSFCYCHPDS"}},
  "data": [
    {"variants_of": "B1", "experiment": "protein stability index of a GFP-peptide fusion (GPS, HEK-293T) (PSI 1-6); higher = more stable", "conditions": "c terminus: a fixed tail appended", "values": [
      {"variant": "FCYCAGSHKRKRSSGSFCSCHPDS", "note": "[Y19S]", "protein stability index": 3.31},
      {"variant": "FCYCAGSHHRKRSSGSFCYCHPDS", "note": "[K9H]", "protein stability index": 1.86},
      {"variant": "FCYCAGSHKWKRSSGSFCYCHPDS", "note": "[R10W]", "protein stability index": 1.92},
      {"variant": "FCYCRGSHKRKRSSGSFCYCHPDS", "note": "[A5R]", "protein stability index": 1.85},
      {"variant": "FCYCAGSHRRKRSSGSFCYCHPDS", "note": "[K9R]", "protein stability index": 1.61},
      {"variant": "RCYCAGSHKRKRSSGSFCYCHPDS", "note": "[F1R]", "protein stability index": 3.85},
      {"variant": "FCYCAGSHKRKRSSGSFCYCMPDS", "note": "[H21M]", "protein stability index": 3.12},
      {"variant": "FCYCAGSHKRKRSSGPFCYCHPDS", "note": "[S16P]", "protein stability index": 1.36},
      {"variant": "FCYCAGSHKRKRSSGSFLYCHPDS", "note": "[C18L]", "protein stability index": 2.4},
      {"variant": "FCYCAGCHKRKRSSGSFCYCHPDS", "note": "[S7C]", "protein stability index": 2.1},
      {"variant": "FCYCAGSHKRKRSSGSTCYCHPDS", "note": "[F17T]", "protein stability index": 2.27},
      {"variant": "FCYCAGSEKRKRSSGSFCYCHPDS", "note": "[H8E]", "protein stability index": 2.1},
      {"variant": "FCYCAGSHKRKRSSGSFCMCHPDS", "note": "[Y19M]", "protein stability index": 3},
      {"variant": "FCYCAGSHKRVRSSGSFCYCHPDS", "note": "[K11V]", "protein stability index": 1.39},
      {"variant": "FCYCAGSHKRKRSSGLFCYCHPDS", "note": "[S16L]", "protein stability index": 1.26},
      {"variant": "FCYCAGSHKRKRSSGSFCYGHPDS", "note": "[C20G]", "protein stability index": 1.99},
      {"variant": "FCYCAGSHARKRSSGSFCYCHPDS", "note": "[K9A]", "protein stability index": 1.63},
      {"variant": "FCYCAGSHKRKRSSLSFCYCHPDS", "note": "[G15L]", "protein stability index": 3.16},
      {"variant": "FCYCMGSHKRKRSSGSFCYCHPDS", "note": "[A5M]", "protein stability index": 1.88},
      {"variant": "FCYCAGIHKRKRSSGSFCYCHPDS", "note": "[S7I]", "protein stability index": 1.75},
      {"variant": "FCYCAGSHKRTRSSGSFCYCHPDS", "note": "[K11T]", "protein stability index": 2.22},
      {"variant": "FCYCAGSHKRKRSSGSFCYCNPDS", "note": "[H21N]", "protein stability index": 2.43},
      {"variant": "FCYCWGSHKRKRSSGSFCYCHPDS", "note": "[A5W]", "protein stability index": 2.26},
      {"variant": "FCYCAGSHKRKRSSGSDCYCHPDS", "note": "[F17D]", "protein stability index": 2.84},
      {"variant": "FCYCAGSHKRKRISGSFCYCHPDS", "note": "[S13I]", "protein stability index": 1.88},
      {"variant": "FCYCAGSHKRKRSSGSFNYCHPDS", "note": "[C18N]", "protein stability index": 2.2},
      {"variant": "FCYCAGSHKRKRSSGSFPYCHPDS", "note": "[C18P]", "protein stability index": 2.1},
      {"variant": "FCYCAGSHKRKRSSGSFCYRHPDS", "note": "[C20R]", "protein stability index": 1.68},
      {"variant": "FCYCAGSHKRKRSSGSFMYCHPDS", "note": "[C18M]", "protein stability index": 2.11},
      {"variant": "FEYCAGSHKRKRSSGSFCYCHPDS", "note": "[C2E]", "protein stability index": 2.05},
      {"variant": "FCYCAGSHKRKRSSGSFCYCHPDC", "note": "[S24C]", "protein stability index": 1.51},
      {"variant": "FCYCAGSYKRKRSSGSFCYCHPDS", "note": "[H8Y]", "protein stability index": 2.57},
      {"variant": "FCYCAGSHKRKRSSGSFCYCHPYS", "note": "[D23Y]", "protein stability index": 2.06},
      {"variant": "FCYCAGSHKGKRSSGSFCYCHPDS", "note": "[R10G]", "protein stability index": 2.27},
      {"variant": "FCYCAGSHKRKRSSGSLCYCHPDS", "note": "[F17L]", "protein stability index": 2.3},
      {"variant": "FCYCAGSHKRKRSSGIFCYCHPDS", "note": "[S16I]", "protein stability index": 2.49},
      {"variant": "FCYTAGSHKRKRSSGSFCYCHPDS", "note": "[C4T]", "protein stability index": 2.06},
      {"variant": "FCYCAGSHKPKRSSGSFCYCHPDS", "note": "[R10P]", "protein stability index": 1.9},
      {"variant": "FCYCAGSHKRKRSSGSFCYCHDDS", "note": "[P22D]", "protein stability index": 2.78},
      {"variant": "FCYCAGSHKRKRSSGSFCYCKPDS", "note": "[H21K]", "protein stability index": 3.17},
      {"variant": "FCQCAGSHKRKRSSGSFCYCHPDS", "note": "[Y3Q]", "protein stability index": 2.89},
      {"variant": "FCYCAGSHKRKRSSGSFCYCLPDS", "note": "[H21L]", "protein stability index": 2.88},
      {"variant": "FCYCAGSHKRKRSLGSFCYCHPDS", "note": "[S14L]", "protein stability index": 2.6},
      {"variant": "FAYCAGSHKRKRSSGSFCYCHPDS", "note": "[C2A]", "protein stability index": 2.76},
      {"variant": "FCYCAGSHKRKRPSGSFCYCHPDS", "note": "[S13P]", "protein stability index": 2.67},
      {"variant": "FCYCAGSHKRKRSSASFCYCHPDS", "note": "[G15A]", "protein stability index": 1.61},
      {"variant": "FCYCAGSHKRKRSSGSFIYCHPDS", "note": "[C18I]", "protein stability index": 2.27},
      {"variant": "FCYCAGSHKRKRSSGSFCYTHPDS", "note": "[C20T]", "protein stability index": 1.98},
      {"variant": "FCYCATSHKRKRSSGSFCYCHPDS", "note": "[G6T]", "protein stability index": 1.55},
      {"variant": "FCYCAGSHNRKRSSGSFCYCHPDS", "note": "[K9N]", "protein stability index": 2.05},
      {"variant": "FNYCAGSHKRKRSSGSFCYCHPDS", "note": "[C2N]", "protein stability index": 1.27},
      {"variant": "FCYCAGSHKRKRSSGSFCYAHPDS", "note": "[C20A]", "protein stability index": 2.01},
      {"variant": "FCYCAGSHKRKRSSGSICYCHPDS", "note": "[F17I]", "protein stability index": 2.05},
      {"variant": "FCYCAGSHKRKRSSHSFCYCHPDS", "note": "[G15H]", "protein stability index": 2.07},
      {"variant": "FCYCDGSHKRKRSSGSFCYCHPDS", "note": "[A5D]", "protein stability index": 2.38},
      {"variant": "FCYCAGSHKRKRSSTSFCYCHPDS", "note": "[G15T]", "protein stability index": 1.96},
      {"variant": "FCYCAGSHKRKRSHGSFCYCHPDS", "note": "[S14H]", "protein stability index": 2.79},
      {"variant": "FCYCAGSHKRKRSSGSFCYCHPLS", "note": "[D23L]", "protein stability index": 1.98},
      {"variant": "FCCCAGSHKRKRSSGSFCYCHPDS", "note": "[Y3C]", "protein stability index": 1.75},
      {"variant": "FCYCAGSHKRKRSSGSFCICHPDS", "note": "[Y19I]", "protein stability index": 2.52},
      {"variant": "FCYRAGSHKRKRSSGSFCYCHPDS", "note": "[C4R]", "protein stability index": 1.36},
      {"variant": "FCYCAGSHKRKRASGSFCYCHPDS", "note": "[S13A]", "protein stability index": 1.95},
      {"variant": "FCYCAGSHSRKRSSGSFCYCHPDS", "note": "[K9S]", "protein stability index": 2.76},
      {"variant": "FCYCAGSHKRKRSEGSFCYCHPDS", "note": "[S14E]", "protein stability index": 1.87},
      {"variant": "WCYCAGSHKRKRSSGSFCYCHPDS", "note": "[F1W]", "protein stability index": 1.91},
      {"variant": "FCYCAGSHKRKRSSCSFCYCHPDS", "note": "[G15C]", "protein stability index": 1.5},
      {"variant": "FCYCAGSHKRKRSSGSFCYCHPDA", "note": "[S24A]", "protein stability index": 1.94},
      {"variant": "SCYCAGSHKRKRSSGSFCYCHPDS", "note": "[F1S]", "protein stability index": 3.78},
      {"variant": "FCYCAGSHKRKRSYGSFCYCHPDS", "note": "[S14Y]", "protein stability index": 2.07},
      {"variant": "FCYCAGSHKRKRSSGSFCYCHPAS", "note": "[D23A]", "protein stability index": 1.35},
      {"variant": "FCYCAGSHKKKRSSGSFCYCHPDS", "note": "[R10K]", "protein stability index": 1.96},
      {"variant": "FCYGAGSHKRKRSSGSFCYCHPDS", "note": "[C4G]", "protein stability index": 1.7},
      {"variant": "ICYCAGSHKRKRSSGSFCYCHPDS", "note": "[F1I]", "protein stability index": 3.79},
      {"variant": "FCYLAGSHKRKRSSGSFCYCHPDS", "note": "[C4L]", "protein stability index": 2.81},
      {"variant": "FCYCAGSFKRKRSSGSFCYCHPDS", "note": "[H8F]", "protein stability index": 1.97},
      {"variant": "FCYCAGSHKRKRSSGSFCYCTPDS", "note": "[H21T]", "protein stability index": 2.47},
      {"variant": "FCYCAGSHKRKRESGSFCYCHPDS", "note": "[S13E]", "protein stability index": 2.02},
      {"variant": "FCYCAGSHKRKRSSGSFCYCHPDK", "note": "[S24K]", "protein stability index": 2.44},
      {"variant": "FCYCAGSPKRKRSSGSFCYCHPDS", "note": "[H8P]", "protein stability index": 1.94},
      {"variant": "CCYCAGSHKRKRSSGSFCYCHPDS", "note": "[F1C]", "protein stability index": 4.1},
      {"variant": "FCYCAGSHKRKRSSGSFCGCHPDS", "note": "[Y19G]", "protein stability index": 2.52},
      {"variant": "FCYCAGSHKRKRSSGSFCYCGPDS", "note": "[H21G]", "protein stability index": 2.55},
      {"variant": "FCYCAGSHKRKRSIGSFCYCHPDS", "note": "[S14I]", "protein stability index": 1.64},
      {"variant": "FCYCAGSHKRKRMSGSFCYCHPDS", "note": "[S13M]", "protein stability index": 2.04},
      {"variant": "FCYCAGSHKRKRSSGSFCVCHPDS", "note": "[Y19V]", "protein stability index": 3.03},
      {"variant": "FCYCAGSHKRKRSSPSFCYCHPDS", "note": "[G15P]", "protein stability index": 1.6},
      {"variant": "FGYCAGSHKRKRSSGSFCYCHPDS", "note": "[C2G]", "protein stability index": 2.7},
      {"variant": "FCYCAGSHKRKPSSGSFCYCHPDS", "note": "[R12P]", "protein stability index": 2.44},
      {"variant": "FCYCAGSHKRKRSSGSNCYCHPDS", "note": "[F17N]", "protein stability index": 2.06},
      {"variant": "FPYCAGSHKRKRSSGSFCYCHPDS", "note": "[C2P]", "protein stability index": 1.53},
      {"variant": "FCYCPGSHKRKRSSGSFCYCHPDS", "note": "[A5P]", "protein stability index": 2.58},
      {"variant": "FCYCAGSHKNKRSSGSFCYCHPDS", "note": "[R10N]", "protein stability index": 2.24},
      {"variant": "FCYCAGSHKRKRSSGSFCYLHPDS", "note": "[C20L]", "protein stability index": 2.18},
      {"variant": "FCYCAGSHKRKRSSGSFCNCHPDS", "note": "[Y19N]", "protein stability index": 3.38}
    ]}
  ]
}
